B1: Somatic embryogenesis receptor kinase 2 (Arabidopsis thaliana (Mouse-ear cress)), Q9XIC7 (parent)
chain: MGRKKFEAFGFVCLISLLLLFNSLWLASSNMEGDALHSLRANLVDPNNVLQSWDPTLVNPCTWFHVTCNNENSVIRVDLGNADLSGQLVPQLGQLKNLQYLELYSNNITGPVPSDLGNLTNLVSLDLYLNSFTGPIPDSLGKLFKLRFLRLNNNSLTGPIPMSLTNIMTLQVLDLSNNRLSGSVPDNGSFSLFTPISFANNLDLCGPVTSRPCPGSPPFSPPPPFIPPPIVPTPGGYSATGAIAGGVAAGAALLFAAPALAFAWWRRRKPQEFFFDVPAEEDPEVHLGQLKRFSLRELQVATDSFSNKNILGRGGFGKVYKGRLADGTLVAVKRLKEERTPGGELQFQTEVEMISMAVHRNLLRLRGFCMTPTERLLVYPYMANGSVASCLRERPPSQLPLAWSIRQQIALGSARGLSYLHDHCDPKIIHRDVKAANILLDEEFEAVVGDFGLARLMDYKDTHVTTAVRGTIGHIAPEYLSTGKSSEKTDVFGYGIMLLELITGQRAFDLARLANDDDVMLLDWVKGLLKEKKLEMLVDPDLQSNYTEAEVEQLIQVALLCTQSSPMERPKMSEVVRMLEGDGLAEKWDEWQKVEVLRQEVELSSHPTSDWILDSTDNLHAMELSGPR
partner: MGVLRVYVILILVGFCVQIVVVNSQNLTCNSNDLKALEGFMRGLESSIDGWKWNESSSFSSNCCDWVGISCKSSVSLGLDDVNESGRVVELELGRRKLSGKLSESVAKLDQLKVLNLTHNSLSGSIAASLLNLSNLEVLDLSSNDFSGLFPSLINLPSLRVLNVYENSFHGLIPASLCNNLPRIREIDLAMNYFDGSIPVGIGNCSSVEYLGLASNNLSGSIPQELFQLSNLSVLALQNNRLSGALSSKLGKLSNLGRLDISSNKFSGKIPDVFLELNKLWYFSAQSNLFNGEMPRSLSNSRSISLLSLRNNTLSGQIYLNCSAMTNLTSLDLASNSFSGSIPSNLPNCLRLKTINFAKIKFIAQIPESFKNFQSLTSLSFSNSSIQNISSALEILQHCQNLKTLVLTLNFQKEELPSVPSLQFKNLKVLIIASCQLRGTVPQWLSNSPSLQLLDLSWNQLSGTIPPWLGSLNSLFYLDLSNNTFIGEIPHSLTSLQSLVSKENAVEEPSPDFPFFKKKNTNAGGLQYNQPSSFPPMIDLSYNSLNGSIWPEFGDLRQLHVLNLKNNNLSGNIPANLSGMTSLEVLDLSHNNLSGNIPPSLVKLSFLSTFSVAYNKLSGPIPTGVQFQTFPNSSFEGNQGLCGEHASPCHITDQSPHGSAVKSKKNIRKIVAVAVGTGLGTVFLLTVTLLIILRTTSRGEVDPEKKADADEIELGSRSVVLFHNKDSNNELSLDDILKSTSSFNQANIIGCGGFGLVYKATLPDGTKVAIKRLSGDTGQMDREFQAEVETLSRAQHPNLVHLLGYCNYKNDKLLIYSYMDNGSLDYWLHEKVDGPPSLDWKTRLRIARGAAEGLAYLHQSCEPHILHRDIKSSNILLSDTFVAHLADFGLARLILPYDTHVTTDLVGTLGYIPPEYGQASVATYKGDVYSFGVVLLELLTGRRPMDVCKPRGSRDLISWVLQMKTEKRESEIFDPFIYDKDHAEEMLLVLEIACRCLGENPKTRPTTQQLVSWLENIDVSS
B2: Phytosulfokine receptor 1 (Daucus carota), Q8LPB4 (parent)
chain: B1 partner
partner: B1 chain

Variants of: B1
Details: with pskr1_dauca PSKR

Variant | effect of a mutation on the interaction
T62Y | disrupting interaction strength

Variants of: B2
Details: with serk2_arath SERK2, Q9XIC7

Variant | effect of a mutation on the interaction
F606D | disrupting interaction strength
S608Y | disrupting interaction strength
T629Y | disrupting interaction strength

Reference: IntAct's records for PubMed 26308901
